Measurements from IntAct's records for PubMed 31515488.

B1: Chorion-specific transcription factor GCMb (Homo sapiens), O75603 (parent)
chain: MPAAAVQEAVGVCSYGMQLSWDINDPQMPQELALFDQFREWPDGYVRFIYSSDEKKAQRHLSGWAMRNTNNHNGHILKKSCLGVVVCTQACTLPDGSRLQLRPAICDKARLKQQKKACPNCHSALELIPCRGHSGYPVTNFWRLDGNAIFFQAKGVHDHPRPESKSETEARRSAIKRQMASFYQPQKKRIRESEAEENQDSSGHFSNIPPLENPEDFDIVTETSFPIPGQPCPSFPKSDVYKATCDLATFQGDKMPPFQKYSSPRIYLPRPPCSYELANPGYTNSSPYPTLYKDSTSIPNDTDWVHLNTLQCNVNSYSSYERSFDFTNKQHGWKPALGKPSLVERTNHGQFQAMATRPYYNPELPCRYLTTPPPGAPALQTVITTTTKVSYQAYQPPAMKYSDSVREVKSLSSCNYAPEDTGMSVYPEPWGPPVTVTRAASPSGPPPMKIAGDCRAIRPTVAIPHEPVSSRTDEAETWDVCLSGLGSAVSYSDRVGPFFTYNNEDF
partner: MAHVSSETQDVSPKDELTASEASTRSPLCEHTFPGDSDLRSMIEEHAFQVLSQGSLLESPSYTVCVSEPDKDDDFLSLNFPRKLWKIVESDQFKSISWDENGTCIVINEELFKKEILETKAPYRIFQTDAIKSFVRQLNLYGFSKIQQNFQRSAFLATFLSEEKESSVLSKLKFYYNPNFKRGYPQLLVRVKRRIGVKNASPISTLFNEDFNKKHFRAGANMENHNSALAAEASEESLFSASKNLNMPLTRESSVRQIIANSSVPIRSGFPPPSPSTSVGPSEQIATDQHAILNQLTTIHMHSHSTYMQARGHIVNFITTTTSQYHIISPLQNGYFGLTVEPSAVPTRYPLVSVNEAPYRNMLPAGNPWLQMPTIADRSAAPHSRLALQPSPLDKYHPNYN
B2: Transmembrane protein 79 (Homo sapiens), Q9BSE2 (parent)
chain: MTEQETLALLEVKRSDSPEKSSPQALVPNGRQPEGEGGAESPGAESLRVGSSAGSPTAIEGAEDGLDSTVSEAATLPWGTGPQPSAPFPDPPGWRDIEPEPPESEPLTKLEELPEDDANLLPEKAARAFVPIDLQCIERQPQEDLIVRCEAGEGECRTFMPPRVTHPDPTERKWAEAVVRPPGCSCGGCGSCGDREWLRAVASVGAALILFPCLLYGAYAFLPFDVPRLPTMSSRLIYTLRCGVFATFPIVLGILVYGLSLLCFSALRPFGEPRREVEIHRRYVAQSVQLFILYFFNLAVLSTYLPQDTLKLLPLLTGLFAVSRLIYWLTFAVGRSFRGFGYGLTFLPLLSMLMWNLYYMFVVEPERMLTATESRLDYPDHARSASDYRPRPWG
partner: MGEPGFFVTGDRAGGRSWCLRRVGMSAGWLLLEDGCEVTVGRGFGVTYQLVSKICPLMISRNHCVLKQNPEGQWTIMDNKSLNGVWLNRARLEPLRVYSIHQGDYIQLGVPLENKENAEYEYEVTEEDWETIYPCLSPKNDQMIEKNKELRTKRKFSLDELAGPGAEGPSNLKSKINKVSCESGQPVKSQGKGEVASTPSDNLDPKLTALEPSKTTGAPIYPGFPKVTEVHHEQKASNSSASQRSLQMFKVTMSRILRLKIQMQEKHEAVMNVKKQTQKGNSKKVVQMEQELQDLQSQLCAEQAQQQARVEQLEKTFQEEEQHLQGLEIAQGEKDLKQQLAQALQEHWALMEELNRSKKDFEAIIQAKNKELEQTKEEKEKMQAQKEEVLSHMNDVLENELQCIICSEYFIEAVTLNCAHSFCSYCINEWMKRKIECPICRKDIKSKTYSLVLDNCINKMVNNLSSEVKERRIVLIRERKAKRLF

Variants of: B1
Details: with hsfy1_human HSFY1, Q96LI6

| Variant | effect of a mutation on the interaction |
| --- | --- |
| MPAAAVQEAVGVCSYGMQLSWDINDPQMPQELALFDQFREWPDGYVRFIYSSNEKKAQRHLSGWAMRNTNNHNGHILKKSCLGVVVCTQACTLPDGSRLQLRPAICDKARLKQQKKACPNCHSALELIPCRGHSGYPVTNFWRLDGNAIFFQAKGVHDHPRPESKSETEARRSAIKRQMASFYQPQKKRIRESEAEENQDSSGHFSNIPPLENPEDFDIVTETSFPIPGQPCPSFPKSDVYKATCDLATFQGDKMPPFQKYSSPRIYLPRPPCSYELANPGYTNSSPYPTLYKDSTSIPNDTDWVHLNTLQCNVNSYSSYERSFDFTNKQHGWKPALGKPSLVERTNHGQFQAMATRPYYNPELPCRYLTTPPPGAPALQTVITTTTKVSYQAYQPPAMKYSDSVREVKSLSSCNYAPEDTGMSVYPEPWGPPVTVTRAASPSGPPPMKIAGDCRAIRPTVAIPHEPVSSRTDEAETWDVCLSGLGSAVSYSDRVGPFFTYNNEDF [D53N] | with no effect |

Variants of: B2
Details: with rnf8_human RNF8, O76064

| Variant | effect of a mutation on the interaction |
| --- | --- |
| MTEQETLALLEVKRSDSPEKSSPQALVPNGRQPEGEGGAESPGAESLRVGSSAGSPTAIEGAEDGLDSTVSEAATLPWGTGPQPSAPFPDPPGWRDIEPEPPETEPLTKLEELPEDDANLLPEKAARAFVPIDLQCIERQPQEDLIVRCEAGEGECRTFMPPRVTHPDPTERKWAEAVVRPPGCSCGGCGSCGDREWLRAVASVGAALILFPCLLYGAYAFLPFDVPRLPTMSSRLIYTLRCGVFATFPIVLGILVYGLSLLCFSALRPFGEPRREVEIHRRYVAQSVQLFILYFFNLAVLSTYLPQDTLKLLPLLTGLFAVSRLIYWLTFAVGRSFRGFGYGLTFLPLLSMLMWNLYYMFVVEPERMLTATESRLDYPDHARSASDYRPRPWG [S104T] | with no effect |
| MTEQETLALLEVKRSDSPEKSSPQALVPNGRQPEGEGGAESPGAESLRVGSSAGSPTAIEGAEDGLDSTVSEAATLPWGTGPQPSAPFPDPPGWRDIEPEPPESEPLTKLEELPEDDANLLPEKAARAFVPIDLQCIERQPQEDLIMRCEAGEGECRTFMPPRVTHPDPTERKWAEAVVRPPGCSCGGCGSCGDREWLRAVASVGAALILFPCLLYGAYAFLPFDVPRLPTMSSRLIYTLRCGVFATFPIVLGILVYGLSLLCFSALRPFGEPRREVEIHRRYVAQSVQLFILYFFNLAVLSTYLPQDTLKLLPLLTGLFAVSRLIYWLTFAVGRSFRGFGYGLTFLPLLSMLMWNLYYMFVVEPERMLTATESRLDYPDHARSASDYRPRPWG [V147M] | with no effect |
| MTEQETLALLEVKRSDSPEKSSPQALVPNGRQPEGEGGAESPGAESLRVGSSAGSPTAIEGAEDGLDSTVSEAATLPWGTGPQPSAPFPDPPGWRDIEPEPPESEPLTKLEELPEDDANLLPEKAARAFVPIDLQCIERQPQEGLIVRCEAGEGECRTFMPPRVTHPDPTERKWAEAVVRPPGCSCGGCGSCGDREWLRAVASVGAALILFPCLLYGAYAFLPFDVPRLPTMSSRLIYTLRCGVFATFPIVLGILVYGLSLLCFSALRPFGEPRREVEIHRRYVAQSVQLFILYFFNLAVLSTYLPQDTLKLLPLLTGLFAVSRLIYWLTFAVGRSFRGFGYGLTFLPLLSMLMWNLYYMFVVEPERMLTATESRLDYPDHARSASDYRPRPWG [D144G] | with no effect |
